Results on 32 molecules are retold here after patent US20060193821, “Aptamers to the human IL-12 cytokine family and their use as autoimmune disease therapeutics” (published 2006).

Data set [1] has as its target T1, IL-23 (human, p19/p40 heterodimer) (Homo sapiens, UniProt Q9NPF7;P29460 SEQ:20-189,SEQ:23-328). Nature of the data set: filter; dot blot; DPBS with Ca and Mg, 0.1 mg/mL BSA, 30 min RT. The note with it: tags: R&D Systems, carrier free, label: 5'-32P. The protocol:
The dot blot binding assay previously described was used to characterize the relative potency of the majority of the aptamers synthesized. For KD determination, chemically synthesized aptamers were purified using denaturing polyacrylamide gel electrophoresis, 5′end labeled with γ-³²P ATP and were tested for direct binding to full human IL-23. An 8 point protein titration was used in the dot blot binding assay (either {100 nM, 30 nM, 10 nM, 3 nM, 1 nM, 300 pM, 100 pM, 0 pM} or {10 nM, 3 nM, 1 nM, 300 pM, 100 pM, 30 pM, 10 pM, 0 pM}) in Dulbecco's PBS (with Mg⁺⁺ and Ca⁺⁺) with 0.1 mg/mL BSA. KD values were calculated by fitting the equation y=(max/(1+K/protein))+yint using KaleidaGraph (KaleidaGraph v. 3.51, Synergy Software). Sequences of the ARC979 derivatives synthesized, purified and assayed for binding to IL-23 as well as the results of the protein binding characterization are tabulated below in Tables 29 and 30.

Data set [2] concerns the target T1, IL-23 (human, p19/p40 heterodimer). Nature of the data set: filter; +tRNA. The settings on record: tags: R&D Systems, carrier free.
For data set [3] the target is unchanged. Nature of the data set: filter; 1X PBS, tRNA, ssDNA, BSA, 30 min RT. The note with it: tags: R&D Systems, carrier free; label: 5'-32P; G4 (predicted). As to the method:
(§1) The clones were 5′end labeled with γ-³²P ATP, and were assayed for both IL-23 and IL-12 binding in a 3-point dot blot screen (0 nM, 20 nM, and 100 nM h-IL-23; 0 nM, 20 nM, and 100 nM h-IL-12) (data not shown). […] KD values were determined by fitting an equation describing a 1:1 RNA:protein complex to the resulting data (fraction aptamer bound=amplitude*([IL-23]/(KD+[IL-23]))+background binding) (KaleidaGraph v. 3.51, Synergy Software). Results of protein binding characterization for the higher affinity clones are tabulated in Table 13, and corresponding clone sequences are listed in Table 12.

The target in data set [4] is T2, IL-12 (human, p35/p40 heterodimer) (Homo sapiens, UniProt P29459;P29460 SEQ:57-253,SEQ:23-328). The experiment in a line: filter; 1X PBS, tRNA, ssDNA, BSA, 30 min RT. The note with it: label: 5'-32P; G4 (predicted). The protocol:
as §1

The target in data set [5] is T1, IL-23 (human, p19/p40 heterodimer). The experiment in a line: filter; PBS, tRNA, ssDNA, BSA. The note with it: tags: R&D Systems, carrier free. The protocol:
as §1

Data set [6] has as its target T2, IL-12 (human, p35/p40 heterodimer). Nature of the data set: filter; PBS, tRNA, ssDNA, BSA. As to the method:
as §1

T1 sequence (Q9NPF7 20-189, chain 1 of 2): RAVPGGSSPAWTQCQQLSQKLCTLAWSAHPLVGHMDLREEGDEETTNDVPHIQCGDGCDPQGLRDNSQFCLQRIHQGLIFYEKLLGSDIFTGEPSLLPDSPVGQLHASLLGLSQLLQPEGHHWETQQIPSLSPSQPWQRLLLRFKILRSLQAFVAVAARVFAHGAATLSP
T1 sequence (P29460 23-328, chain 2 of 2): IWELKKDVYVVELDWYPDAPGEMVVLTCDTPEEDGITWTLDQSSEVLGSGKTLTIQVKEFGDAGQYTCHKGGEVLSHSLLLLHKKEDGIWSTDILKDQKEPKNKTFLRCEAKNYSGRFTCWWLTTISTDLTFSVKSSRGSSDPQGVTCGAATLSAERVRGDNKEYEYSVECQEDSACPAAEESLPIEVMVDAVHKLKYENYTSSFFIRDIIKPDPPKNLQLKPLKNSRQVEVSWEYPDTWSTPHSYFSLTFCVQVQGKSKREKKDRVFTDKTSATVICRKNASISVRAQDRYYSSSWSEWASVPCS
T2 sequence (P29459 23-219, chain 1 of 2): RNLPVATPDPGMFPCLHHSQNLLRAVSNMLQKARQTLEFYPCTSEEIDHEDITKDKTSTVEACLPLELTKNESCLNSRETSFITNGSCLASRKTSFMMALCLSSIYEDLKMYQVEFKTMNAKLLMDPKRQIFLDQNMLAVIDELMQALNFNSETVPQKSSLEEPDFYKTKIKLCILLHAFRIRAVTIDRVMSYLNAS
T2 sequence (P29460 23-328, chain 2 of 2): as the sequence (P29460 23-328, chain 2 of 2) above

The term Kd denotes a measure of binding affinity in units of concentration. On to ACAGGCAAGUAAUUGGGGAGUGCGGGCGGGGUGU (mixed, dRmY; 2'-OMe G15; 3'-idT) [ARC1436], for which the Kd in data set [1] was found to be 15.1 nM.

The molecule CCAGGCAAGUAAUUGGGGAGUGCGGGCGGGGUGG (mixed, deoxy A,G; 2'-OMe C,U) [ARC980] came in with a dissociation constant Kd in data set [2] of 139 nM.

As for ACAGGCAAGUAAUUGGGGAGUGCGGGCGGGGUGU (mixed, dRmY with 2'-OMe at G16, G17, G23, G24, G29, G30; 3'-idT) [ARC1544], the dissociation constant (Kd) in data set [1] was determined as 0.9 nM.

B1: ARC1756 (mixed)
RNA: ACAGGCAAGUAAUUGGGGAGUGCGGGCGGGGUGU
modifications: mAmC-s-dAdGdGmC-s-dAmAmGmUmA-s-dAmUmU-s-dGmGmG-s-dG-s-dA-s-dGmU-s-dGmCmGmGmGmCmGmGmGmGmUmGmU-3T (d deoxy, m 2'-OMe, s PS, 3T idT) [PS at 2-3, 6-7, 11-12, 14-15, 17-18, 18-19, 19-20, 21-22; 2'-deoxy at 3,4,5,7,12,15,18,19,20,22; 2'-OMe at other nt 1-34; 3'-inverted dT at 35]
B1: the Kd in data set [1] amounted to 0.5 nM.

For ACAGGCAAGUAAUUGGGGAGUGCGGGCGGGGUGU (mixed, dRmY; 3'-idT) [ARC1386], the Kd in data set [1] (G4 (predicted)) was 1 nM.

B2: ARC1625 (mixed)
RNA: ACAGGCAAGUAAUUGGGGAGUGCGGGCGGGGUGU
modifications: dAmCdAdGdGmCdAdAdGmUdAdAmUmUdGmGmGdGdAdGmUdGmCmGmGdGmCdGdGmGmGmU-s-dGmU-3T (d deoxy, m 2'-OMe, s PS, 3T idT) [PS at 32-33; 2'-OMe at 2,6,10,13,14,16,17,21,23,24,25,27,30,31,32,34; 2'-deoxy at other nt 1-33; 3'-inverted dT at 35]
With B2, in data set [1], the equilibrium dissociation constant (Kd) was determined as 0.4 nM.

B3: ARC616 (mixed)
RNA: GGGAGAGGAGAGAACGUUCUACGAUAUAGGCGGUACGGGGGGAGUGGGCUGGGGUCGAUCGAUCGAUCAUCGAUG
modifications: 2'-deoxy A and G, 2'-OMe C and U (dRmY)
Turning to B3, the Kd in data set [3] was 13.1 nM; in data set [4], 52.1 nM.

B4: ARC612 (mixed)
RNA: GGGAGAGGAGAGAACGUUCUACAGGCAAGUAAUUGGGGAGUGCGGGCGGGGGGGUCGAUCGAUCGAUCAUCGAUG
modifications: 2'-deoxy A and G, 2'-OMe C and U (dRmY)
On to B4, for which the equilibrium dissociation constant (Kd) in data set [3] is 5.8 nM; in data set [4] it was 41.7 nM.

B5: ARC642 (mixed)
RNA: GGGAGAGGAGAGAACGUUCUACAGGCGCAGCCAGCGGGGAGUGAGGGUGGGGGUCGAUCGAUCGAUCAUCGAUG
modifications: deoxy A,G; 2'-OMe C,U
On to B5, for which the Kd in data set [5] amounted to 37.2 nM; in data set [6], 188 nM.

B6: ARC645 (mixed)
RNA: GGGAGAGGAGAGAACGUUCUACAGGUAGGCAAGAUAUUGGGGGAAGCGGGUGGGGUCGAUCGAUCGAUCAUCGAUG
modifications: deoxy A,G; 2'-OMe C,U
As for B6, the figures for the Kd in data set [5] and in data set [6] were 33.5 nM and 137 nM, respectively.

B7: ARC621 (mixed)
RNA: GGGAGAGGAGAGAACGUUCUACAGGCGGUUACGGGGGAUGCGGGUGGGACAGGUCGAUCGAUCGAUCAUCGAUG
modifications: 2'-deoxy A and G, 2'-OMe C and U (dRmY)
Turning to B7, the figures for the dissociation constant (Kd) in data set [3] and in data set [4] were 28.8 nM and 112 nM, respectively.

B8: ARC646 (mixed)
RNA: GGGAGAGGAGAGAACGUUCUACACAUGGCUCGAAAGAGGGGCGUGAGGGUGGGGUCGAUCGAUCGAUCAUCGAUG
modifications: deoxy A,G; 2'-OMe C,U
As for B8, the equilibrium dissociation constant (Kd) in data set [5] worked out at 208 nM; in data set [6], 383 nM.

GAUGUUGGCAAGUAAUUGGGGAGUGCGGGCGGGGUUCAUC (mixed, deoxy A,G; 2'-OMe C,U; 3'-idT) [ARC897] displayed a Kd in data set [2] of 93 nM.

On to GGCAAGUAAUUGGGGAGUGCGGGCGGGG (mixed, dRmY; 2'-OMe at two As and one G as printed in Table 29; 3'-idT) [ARC1469], for which the dissociation constant (Kd) in data set [1] was 49.8 nM.

In turn, UAAUUGGGGAGUGCGGGCGGGGGGUCGAUCG (mixed, deoxy A,G; 2'-OMe C,U) [ARC796] showed a Kd in data set [2] of 106 nM.

In data set [2], GGUGGGGAGUGCGGGCGGGGGGUCGCC (mixed, deoxy A,G; 2'-OMe C,U) [ARC797] showed a Kd of 50 nM.

B9: ARC632 (mixed)
RNA: GGGAGAGGAGAGAACGUUCUACAAUUGCAGGUGGUGCCGGGGGUUGGGGGCGGGUCGAUCGAUCGAUCAUCGAUG
modifications: 2'-deoxy A and G, 2'-OMe C and U (dRmY)
Consider B9, for which the Kd was 19.1 nM in data set [3] and 63.9 nM in data set [4].

B10: ARC635 (mixed)
RNA: GGGAGAGGAGAGAACGUUCUACAGGCUCAAAAGAGGGGGAUGUGGGAGGGGGUCGAUCGAUCGAUCAUCGAUG
modifications: deoxy A,G; 2'-OMe C,U
For the molecule B10, the dissociation constant (Kd) in data set [5] came out at 172 nM; in data set [6], 431 nM.

The molecule GGCAAGGUAAUUGGGGAGUGCGGGCUGGG (mixed, deoxy A,G; 2'-OMe C,U) [ARC893] yielded a Kd in data set [2] of 2860 nM.

B11: ARC628 (mixed)
RNA: GGGAGAGGAGAGAACGUUCUACAGGCAAGGCAAUUGGGGAGCGUGGGUGGGGGGGUCGAUCGAUCGAUCAUCGAUG
modifications: deoxy A,G; 2'-OMe C,U
For the molecule B11, the dissociation constant (Kd) was found to be 57.8 nM in data set [5] and 146 nM in data set [6].

B12: ARC627 (mixed)
RNA: GGGAGAGGAGAGAACGUUCUACAGGCAAGUAAUUGGGGAGUGCGGGCGGGGUGUCGAUCGAUCGAUCAUCGAUG
modifications: 2'-deoxy A and G, 2'-OMe C and U (dRmY)
Take B12: the Kd in data set [3] was 7 nM; in data set [4] it was 79.5 nM.

B13: ARC626 (mixed)
RNA: GGGAGAGGAGAGAACGUUCUACAGGCAAGUAAUUGGGGAGUGCGGGCGGGGGGUCGAUCGAUCGAUCAUCGAUG
modifications: 2'-deoxy A and G, 2'-OMe C and U (dRmY)
In the case of B13, the equilibrium dissociation constant (Kd) in data set [3] was 10.1 nM; in data set [4] it was 69.8 nM.

In data set [2], CCAGGCAAGGUAAUUGGGGAGUGCGGGCGGGGUGG (mixed, deoxy A,G; 2'-OMe C,U) [ARC890] showed a dissociation constant (Kd) of 114 nM.

In turn, ACAGGCAAGGUAAUUGGGGAGUGCGGGCGGGGUGU (mixed, deoxy A,G; 2'-OMe C,U) [ARC889] registered a Kd in data set [2] of 115 nM.

GGCAAGGUAAUUGGGAAGUGUGGGCGGGG (mixed, deoxy A,G; 2'-OMe C,U) [ARC891] yielded a Kd in data set [2] of 177 nM.

B14: ARC614 (mixed)
RNA: GGGAGAGGAGAGAACGUUCUACAAGGCGGUACGGGGAGUGUGGGUUGGGGCCGGUCGAUCGAUCGAUCAUCGAUG
modifications: 2'-deoxy A and G, 2'-OMe C and U (dRmY)
For B14, the dissociation constant (Kd) was 3.1 nM in data set [3] and 54.4 nM in data set [4].

B15: ARC611 (mixed)
RNA: GGGAGAGGAGAGAACGUUCUACAGGCAAGGCAAUUGGGGAGUGUGGGUGGGGGGUCGAUCGAUCGAUCAUCGAUG
modifications: 2'-deoxy A and G, 2'-OMe C and U (dRmY)
Turning to B15, the Kd was 21.3 nM in data set [3] and 123 nM in data set [4].

B16: ARC620 (mixed)
RNA: GGGAGAGGAGAGAACGUUCUACAGGAAAGGCGCUUGCGGGGGGUGAGGGAGGGGUCGAUCGAUCGAUCAUCGAUG
modifications: deoxy A,G; 2'-OMe C,U
Consider B16, for which the dissociation constant Kd was determined as 44.8 nM in data set [5] and 179 nM in data set [6].

B17: ARC644 (mixed)
RNA: GGGAGAGGAGAGAACGUUCUACUAGUGAGGCGGUAACGGGGGGUGAGGGUGGGGUCGAUCGAUCGAUCAUCGAUG
modifications: deoxy A,G; 2'-OMe C,U
As to B17, the Kd in data set [5] was 34.5 nM; in data set [6], 193 nM.

GGCAAGGUAAUUGGGUAGUGAGGGCGGGG (mixed, deoxy A,G; 2'-OMe C,U) [ARC892] came in with a dissociation constant (Kd) in data set [2] of 255 nM.

Turning to GGCAAGUAAUUGGGGAGUGCGGGCGGGG (mixed, dRmY; 3'-idT) [ARC1468], the Kd in data set [1] amounted to 10 nM.

B18: ARC643 (mixed)
RNA: GGGAGAGGAGAGAACGUUCUACAGGCCGAUGAGGGGGAGCAGUGGGUGGGGGGUCGAUCGAUCGAUCAUCGAUG
modifications: deoxy A,G; 2'-OMe C,U
For B18, the Kd in data set [5] is 71.6 nM; in data set [6] it was 309 nM.
